Assay results taken from patent US20250011433A1 (GLIKNIK, published 2025).
Changes are numbered by the printed parent chain. Names may count otherwise. Each block holds one binder with its values, some of them ahead of it.

Legend:
FcγRIIb = target: T1, FcγRIIb (UniProt P31994 46-217, limits assumed); test: BLI (Octet)
T1 sequence (looked up): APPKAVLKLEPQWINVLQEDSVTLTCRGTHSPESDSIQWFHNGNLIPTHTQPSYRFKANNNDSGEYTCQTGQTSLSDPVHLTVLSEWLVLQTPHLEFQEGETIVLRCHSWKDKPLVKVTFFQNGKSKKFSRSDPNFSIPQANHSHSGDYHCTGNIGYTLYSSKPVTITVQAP
Experimental: (§1) Binding of complement-preferential stradomers or parent stradomer G045c to FcγRI, FcγRIIb, FcγRIIIa, FcγRIIa, or FcRn was assessed. RU values of dissociation were measured by biolayer interferometry using a ForteBio Octet instrument. His-tagged receptor proteins were bound to the sensor tip in 1× kinetic analysis buffer from ForteBio after which the on rate of the receptor/protein was measured by transferring the sensor tip to a 1× kinetics buffer containing the purified stradomer of choice. Off rate was measured by transferring the sensor tip to a 1× kinetics buffer, and RU value was calculated from the measured maximum binding using the ForteBio software. Biolayer interferometry detects the binding between a ligand immobilized on the biosensor tip surface and an analyte in solution. When binding occurs it produces an increase in optical thickness at the biosensor tip, which results in a wavelength shift (detected as a response unit of “RU”). The maximum binding level (RU max) is the maximum possible amount of sample binding at equilibrium that saturates the amount of ligand on the sensor surface. The RU 300 is the residual sample binding after 300 seconds of dissociation and is useful to characterize the rate of dissociation of the test article from the test ligand.
(§2) For each stradomer in Tables 5-9, the level of canonical FcγR binding, complement C1q binding, and CDC inhibition were determined according to the methods described in Example 1.

FcγRI = target: T2, FcγRI (UniProt P12314 16-288); test: BLI (Octet)
T2 construct: also called CD64
T2 sequence (P12314 16-288 limits assumed): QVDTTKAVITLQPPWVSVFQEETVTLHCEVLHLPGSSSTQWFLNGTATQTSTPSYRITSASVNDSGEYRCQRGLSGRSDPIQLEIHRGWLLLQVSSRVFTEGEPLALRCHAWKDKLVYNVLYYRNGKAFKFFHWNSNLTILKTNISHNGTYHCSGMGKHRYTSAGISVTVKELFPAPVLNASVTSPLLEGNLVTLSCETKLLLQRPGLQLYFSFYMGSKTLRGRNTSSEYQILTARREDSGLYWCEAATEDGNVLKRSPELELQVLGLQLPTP
Experimental: as §1, §2

C1q = C1q (UniProt P02745 23-245; P02746 28-253; P02747 29-245); test: cell-based or functional assay
Sequence of C1q (P02745 23-245 limits assumed, chain 1 of 3): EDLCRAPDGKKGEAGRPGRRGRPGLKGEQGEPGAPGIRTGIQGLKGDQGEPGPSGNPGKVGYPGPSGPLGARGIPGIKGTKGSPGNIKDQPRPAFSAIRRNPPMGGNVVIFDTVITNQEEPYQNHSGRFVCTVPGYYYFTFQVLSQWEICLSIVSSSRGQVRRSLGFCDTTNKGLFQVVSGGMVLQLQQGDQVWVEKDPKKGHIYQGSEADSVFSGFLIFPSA
Sequence of C1q (P02746 28-253 limits assumed, chain 2 of 3): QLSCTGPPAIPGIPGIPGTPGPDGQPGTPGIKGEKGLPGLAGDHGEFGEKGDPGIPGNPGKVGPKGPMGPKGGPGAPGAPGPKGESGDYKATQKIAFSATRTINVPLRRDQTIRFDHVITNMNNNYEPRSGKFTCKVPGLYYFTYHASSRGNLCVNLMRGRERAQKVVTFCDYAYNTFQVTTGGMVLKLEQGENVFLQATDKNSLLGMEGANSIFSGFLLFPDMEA
Sequence of C1q (P02747 29-245 limits assumed, chain 3 of 3): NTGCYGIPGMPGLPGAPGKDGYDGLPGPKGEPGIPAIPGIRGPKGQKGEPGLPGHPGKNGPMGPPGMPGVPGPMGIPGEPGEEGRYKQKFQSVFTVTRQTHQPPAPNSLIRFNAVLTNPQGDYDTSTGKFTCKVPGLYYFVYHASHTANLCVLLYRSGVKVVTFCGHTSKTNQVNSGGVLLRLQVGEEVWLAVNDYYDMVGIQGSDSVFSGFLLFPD

B1: G1068 (Fc fusion)
chain: EPKSCDKTHTCPPCPAPELLGGPSVFLFPPKPKDTLMISRTPEVTCVVVDVEFEDPEVKFNWYVDGVEVHNAKTKPREEQYNSAYRVVSVLTVLHQDWLNGKEYKCKVTNKALPAPIEKTISKAKGQPREPQVYTLPPSRDELTKNQVSLTCLVKGFYPSDIAVEWESNGQPENNYKTTPPVLDSDGSFFLYSKLTVDKSRWQQGNVFSCSVMHEALHNHYTQKSLSLSPGKERKCCVECPPCP
notes: G045c background, S267E/H268F/S324T/T299A; leader 1-20 cleaved
- binding result (FcγRIIb): binds
- binding result (FcγRI): binds

B2: G1082 (Fc fusion)
chain: B1 chain with E18P, G21H, E52S, A84T
notes: G045c background, E233P/G236H/H268F/S324T; leader 1-20 cleaved
- CDC Inhibition (EC50, µg/mL) (C1q): 5 µg/mL
- binding result (FcγRI): binds

B6: G1088 (Fc fusion)
chain: B1 chain with E18P, G21Q, E52S, A84T
notes: G045c background, E233P/G236Q/H268F/S324T; leader 1-20 cleaved
- CDC Inhibition (EC50, µg/mL) (C1q): 5 µg/mL
- binding result (FcγRIIb): binds
- binding result (FcγRI): binds

B9: G1075 (Fc fusion)
chain: B1 chain with E52Q, N82A, A84T
notes: G045c background, S267Q/H268F/S324T/N297A; leader 1-20 cleaved
- CDC Inhibition (EC50, µg/mL) (C1q): 15 µg/mL
- binding result (FcγRI): binds

B11: G1110 (Fc fusion)
chain: B1 chain with E18P, G21D, E52R, A84T
notes: G045c background, E233P/G236D/S267R/H268F/S324T; leader 1-20 cleaved
- CDC Inhibition (EC50, µg/mL) (C1q): 25 µg/mL
- binding result (FcγRI): binds

B15: G1131 (Fc fusion)
chain: B1 chain with E18P, G21R, E52N, A84T
notes: G045c background, E233P/G236R/S267N/H268F/S324T; leader 1-20 cleaved
- CDC Inhibition (EC50, µg/mL) (C1q): 15 µg/mL
- binding result (FcγRI): binds

B16: G1094 (Fc fusion)
chain: B1 chain with E52Q
notes: G045c background, S267Q/H268F/S324T/T299A; leader 1-20 cleaved
- CDC Inhibition (EC50, µg/mL) (C1q): 12.5 µg/mL
- binding result (FcγRIIb): binds
- binding result (FcγRI): binds

B19: G1115 (Fc fusion)
chain: B1 chain with E18P, G21E, E52R, A84T
notes: G045c background, E233P/G236E/S267R/H268F/S324T; leader 1-20 cleaved
- CDC Inhibition (EC50, µg/mL) (C1q): 50 µg/mL
- binding result (FcγRI): binds

Continued, values first:

- binding result (FcγRI): binds
B3: G1106 (Fc fusion)
chain: B1 chain with E18P, G21K, E52S, A84T
notes: G045c background, E233P/G236K/H268F/S324T; leader 1-20 cleaved

- binding result (FcγRI): binds
B4: G1121 (Fc fusion)
chain: B1 chain with E18P, G21D, E52K, A84T
notes: G045c background, E233P/G236D/S267K/H268F/S324T; leader 1-20 cleaved

- binding result (FcγRI): binds
B5: G1120 (Fc fusion)
chain: B1 chain with E18P, G21R, E52Q, A84T
notes: G045c background, E233P/G236R/S267Q/H268F/S324T; leader 1-20 cleaved

- binding result (FcγRI): binds
B7: G1069 (Fc fusion)
chain: B1 chain with E52S, N82A, A84T
notes: G045c background, H268F/S324T/N297A; leader 1-20 cleaved

- binding result (FcγRIIb): binds
- binding result (FcγRI): binds
B8: G1130 (Fc fusion)
chain: B1 chain with E18P, G21N, E52K, A84T
notes: G045c background, E233P/G236N/S267K/H268F/S324T; leader 1-20 cleaved

- binding result (FcγRIIb): binds
- binding result (FcγRI): binds
B10: G1124 (Fc fusion)
chain: B1 chain with E18P, G21K, E52K, A84T
notes: G045c background, E233P/G236K/S267K/H268F/S324T; leader 1-20 cleaved

- binding result (FcγRIIb): binds
- binding result (FcγRI): binds
B12: G1074 (Fc fusion)
chain: B1 chain with E52D, N82A, A84T
notes: G045c background, S267D/H268F/S324T/N297A; leader 1-20 cleaved

- binding result (FcγRIIb): binds
- binding result (FcγRI): binds
B13: G1118 (Fc fusion)
chain: B1 chain with E18P, G21Q, E52Q, A84T
notes: G045c background, E233P/G236Q/S267Q/H268F/S324T; leader 1-20 cleaved

- binding result (FcγRIIb): binds
- binding result (FcγRI): binds
B14: G1128 (Fc fusion)
chain: B1 chain with E18P, G21K, E52N, A84T
notes: G045c background, E233P/G236K/S267N/H268F/S324T; leader 1-20 cleaved

- binding result (FcγRIIb): binds
- binding result (FcγRI): binds
B17: G1092 (Fc fusion)
chain: B1 chain with E52D
notes: G045c background, S267D/H268F/S324T/T299A; leader 1-20 cleaved

- binding result (FcγRIIb): binds
- binding result (FcγRI): binds
B18: G1089 (Fc fusion)
chain: B1 chain with E18P, G21R, E52S, A84T
notes: G045c background, E233P/G236R/H268F/S324T; leader 1-20 cleaved
